Among the data in paper PMC6862464, “Structural Insights into AQP2 Targeting to Multivesicular Bodies” (International Journal of Molecular Sciences, 2019) are Kd values, retold here.

Assay [1] concerns the target T1, full-length human lysosomal trafficking regulator-interacting protein 5 (FL-LIP5) (human, UniProt Q9NP79 1-307).
T1 construct: spacer between the last LIP5 residue and the TEV protease site that precedes the His tag; same tag, TEV site and linker as ND-LIP5; No TEV cleavage is described; also called full-length LIP5; wild-type LIP5; source: E. coli BL21*(DE3), purified (HisTrap, SEC)
T1 sequence: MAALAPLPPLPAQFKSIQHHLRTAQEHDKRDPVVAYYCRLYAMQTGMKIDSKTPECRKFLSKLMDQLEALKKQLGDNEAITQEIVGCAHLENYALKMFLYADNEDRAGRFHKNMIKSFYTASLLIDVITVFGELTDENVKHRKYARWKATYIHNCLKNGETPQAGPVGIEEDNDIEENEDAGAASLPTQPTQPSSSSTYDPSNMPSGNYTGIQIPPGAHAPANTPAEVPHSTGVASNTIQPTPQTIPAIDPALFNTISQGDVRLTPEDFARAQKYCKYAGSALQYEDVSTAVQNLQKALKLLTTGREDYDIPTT
Put plainly: other fluorescence titration; Alexa 488-labeled, dephosphorylated AQP2 (around 1 uM) in the cuvette, titrated with unlabeled LIP5; total fluorescence; 20 mM Tris-HCl pH 8, 300 mM NaCl, 0.2% OGNG; triplicate titrations. Particulars: both partners purified.

Assay [2] has as its target T2, full-length human LIP5 M43A (human, UniProt Q9NP79 1-307, M43A).
T2 construct: LIP5, human, full length, point mutant; spacer before the TEV site and His tag, as in m2; Mutant of m2; dimer as said of full-length LIP5 (cited); source: E. coli BL21*(DE3), purified (HisTrap, SEC)
T2 sequence: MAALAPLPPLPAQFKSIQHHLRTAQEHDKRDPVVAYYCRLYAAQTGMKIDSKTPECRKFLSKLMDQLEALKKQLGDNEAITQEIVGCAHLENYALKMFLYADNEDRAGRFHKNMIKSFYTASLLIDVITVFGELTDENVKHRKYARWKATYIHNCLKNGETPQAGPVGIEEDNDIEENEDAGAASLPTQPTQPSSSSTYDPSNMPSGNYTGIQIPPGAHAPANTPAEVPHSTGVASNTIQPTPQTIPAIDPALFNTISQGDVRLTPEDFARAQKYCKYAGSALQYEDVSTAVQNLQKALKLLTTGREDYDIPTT
The assay is described as above. The following applies: both partners purified.

B1: human aquaporin 2 (AQP2), wild-type (natural protein, UniProt P41181 1-271, looked up)
chain: MWELRSIAFSRAVFAEFLATLLFVFFGLGSALNWPQALPSVLQIAMAFGLGIGTLVQALGHISGAHINPAVTVACLVGCHVSVLRAAFYVAAQLLGAVAGAALLHEITPADIRGDLAVNALSNSTTAGQAVTVELFLTLQLVLCIFASTDERRGENPGTPALSIGFSVALGHLLGIHYTGCSMNPARSLAPAVVTGKFDDHWVFWIGPLVGAILGSLLYNYVLFPPAKSLSERLAVLKGLEPDTDWEEREVRRRQSVELHSPQSLPRGTKA
modifications: cysteine residues labeled with C5 maleimide Alexa 488; dephosphorylated with alkaline phosphatase before labeling
notes: concentrations and molar ratios seem to count monomers; His-tag is called uncleavable; also called WT; labeled AQP2; source: Pichia pastoris, purified (HisTrap, SEC) in OGNG; not shown: His-tag, N-terminal, kept
For the molecule B1, the Kd came to 237 nM in assay [1] and 457 nM in assay [2].

In general, Kd refers to the constant that tells how readily two partners part at equilibrium. High values mean weaker binding, low ones tighter binding.
